From patent US20060166284A1 (Bayer, published 2006) come the findings set out here.

To fix the notation:
B1: recombinant human soluble tissue factor (receptor, UniProt P13726 33-251, looked up)
chain: SGTTNTVAAYNLTWKSTNFKTILEWEPKPVNQVYTVQISTKSGDWKSKCFYTTDTECDLTDEIVKDVKQTYLARVFSYPAGNVESTGSAGEPLYENSPEFTPYLETNLGQPTIQSFEQVGTKVNVTVEDERTLVRRNNTFLSLRDVFGKDLIYTLYYWKSSSSGKKTAKTNTNEFLIDVDKGENYCFSVQAVIPSRTVNRKSTDSPVECMGQEKGEFRE
notes: extracellular domain; also called sTF; soluble TF
B2: single chain anti-TF antibody scFv(TF)3e10 (scFv)
scFv: EMAQVNLRESGGTLVQPGGSLRLSCAASGFSFTDAWMSWVRQAPGKELEWVSSISGSGGSTYYAGSVKGRFTISRDNSKNTLYLQMNSLRAEDTAVYYCARVLSLTDYYWYGMDVWGQGTLVTVSAGGGGSGAPNFMLTQPHSVSASPGKTVTISCTRSSGSVASYYVQWYQQRPGSSPTTVIYEDNHRPSGVPDRFSGSIDTSSNSASLTISGLKTEDEADYYCQSYDSNNLVVFGGGTKLTVLGAAAGAPVPYPDPLEPRAA
notes: Monomer and dimer forms were separated by gel filtration

The target in data set [1] is FVIIa/TF complex on a phospholipid surface (recombinant human TF vesicles with human FVIIa) (UniProt P13726).
For data set [2], the target named is T1, human factor VIIa (human, UniProt P08709 61-466).
T1 construct: mature; also called FVIIa
T1 sequence (looked up): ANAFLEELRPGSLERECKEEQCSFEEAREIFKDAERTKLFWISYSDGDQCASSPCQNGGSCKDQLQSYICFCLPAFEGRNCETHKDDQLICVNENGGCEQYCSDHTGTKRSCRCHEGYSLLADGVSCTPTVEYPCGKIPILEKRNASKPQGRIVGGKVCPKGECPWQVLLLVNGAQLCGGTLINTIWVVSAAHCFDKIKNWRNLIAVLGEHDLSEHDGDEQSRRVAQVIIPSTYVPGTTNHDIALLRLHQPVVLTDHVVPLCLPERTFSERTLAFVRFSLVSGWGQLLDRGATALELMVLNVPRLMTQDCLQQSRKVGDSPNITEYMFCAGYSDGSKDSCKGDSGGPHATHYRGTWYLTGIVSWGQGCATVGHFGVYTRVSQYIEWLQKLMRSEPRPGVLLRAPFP
Description: sTF/FVIIa peptide hydrolysis assay (S2266), 2 nM FVIIa, sTF titrated, apparent KD from a 4-parameter fit; no antibody.

Data set [3] deals with T2, sTF/FVIIa complex (soluble tissue factor with active human FVIIa) (human, UniProt P13726 33-251; P08709 61-466).
T2 construct: extracellular domain;mature; The complex forms in the sTF/FVIIa peptide hydrolysis assay (3 nM sTF, 2 nM FVIIa); also called FVIIa/TF complex; VIIa/TF complex
Description: sTF/FVIIa peptide hydrolysis assay (3 nM sTF, 2 nM FVIIa); scFv titrated, 4-parameter fit of the rise in rate; bacterially expressed scFv; peptide hydrolysis assay with 3 nM sTF and 2 nM FVIIa present.

The target of data set [4] is T3, FVIIa/TF complex preformed from sTF and FVIIai (human, UniProt P13726 33-251; P08709 61-466, limits assumed, active site inactivated by a chloromethylketone peptide, PPACK (FVIIai)).
T3 construct: extracellular domain;mature; Complex used in the microcalorimetry assay; It was made with a 2.3 fold molar excess of FVIIai over sTF; also called TF/FVIIa complex; sTF/FVIIa complex
Description: microcalorimetry (ITC); scFv expressed in mammalian (CHO) cells; complex of sTF with FVIIai; microcalorimetry; TF/FVIIa complex; mammalian cell expressed scFv. The protocol: (§1) This assay is performed using a MicroCal VP-ITC instrument. […] Data analysis is performed using MicroCal Origin software. The data is fit to a single binding site.

Data set [5] deals with B1. Description: BIAcore; BIAcore; free sTF, no FVIIa. On the technique in general: In SPR one partner is held on a chip, and binding of the other changes the refractive index at the surface.
For data set [6], the target named is T3, FVIIa/TF complex preformed from sTF and …. Kind of data set: microcalorimetry (isothermal titration calorimetry), model OneSites, CHO-expressed scFv(TF)3e10 titrated into the preformed sTF/FVIIai complex; no unit printed in the fit box. How it is done:
as §1

In data set [7] the target is B1. Kind of data set: microcalorimetry (isothermal titration calorimetry), model OneSites, CHO-expressed scFv(TF)3e10 titrated into sTF; no unit printed in the fit box. How it is done: as §1
In general terms: Isothermal titration calorimetry measures the heat released or taken up as one component is titrated into another.

The target of data set [8] is T1, human factor VIIa. Kind of data set: sTF/FVIIa peptide hydrolysis assay (S2266), 2 nM FVIIa, no sTF.
For data set [9], the target named is B1. Kind of data set: microcalorimetry (ITC); scFv expressed in mammalian (CHO) cells; free sTF; microcalorimetry; free sTF; mammalian cell expressed scFv. How it is done:
as §1

In data set [10] the target is T3, FVIIa/TF complex preformed from sTF and …. Kind of data set: microcalorimetry (ITC); scFv expressed in mammalian (CHO) cells. How it is done: as §1
For data set [11] the target is unchanged. Description: microcalorimetry (isothermal titration calorimetry), model OneSites, CHO-expressed scFv(TF)3e10 titrated into the preformed sTF/FVIIai complex. The protocol:
as §1

Data set [12] addresses FVIIa/TF complex on a phospholipid surface (recombinant human TF vesicles with human FVIIa) (human, UniProt P13726 33-295; P08709 61-466). Description: cell-based or functional assay.

Several values for one entry are separate records, joined by “and”; a condition that tells them apart may be missing. Equal entries are not always repeated.

For the molecule human factor X, the “Km of FX for the VIIa/TF complex (FX activation assay)” value in [1] was “between 0.061 and 0.099 µM”.
On to B1, for which, in data set [2], the Kd stood at 13 nM.
In the case of B2, the Kd came to 65 nM in data set [3], 33 nM in data set [4], 470 nM in data set [5] and 600 nM in [9]. In addition, the ΔH in [6] was -28600; in data set [7], -21800. The same molecule yielded a ΔS in data set [6] of -60. Besides, the binding result in data set [8] is “no binding (tested: 800 nM)”. Besides, the “fold higher affinity for the TF/FVIIa complex as compared to free sTF” value in data set [10] was around 20 fold. In [11], the N came out at 1.14. The “IC50 for inhibition in the FX activation assay” value in data set [12] is 0.44 nM.
